Where two headings read alike, the source gives them in different places.
Key:
[1] = biological target: DnaC (with DnaB^KAEA and M13 ssDNA) (Escherichia coli, UniProt P0AEF0); experiment: coupled pyruvate kinase/lactate dehydrogenase ATPase assay, A340; type: biochemical; details: DnaB K236A/E262A and M13 ssDNA present; 10 mM MgCl2, pH 7.5, 37 °C
[2] = biological target: E. coli DnaB replicative helicase, wild type (E. coli) (UniProt P0ACB0); experiment: cryo-EM structure
[3] = biological target: E. coli DnaB replicative helicase, wild type (E. coli) (UniProt P0ACB0); experiment: cryo-EM structure; remark: listed apart in the source
cryo-EM structure = biological target: the molecule itself; experiment: cryo-EM structure

## Nc1ncnc2c1ncn2[C@@H]1O[C@H](COP(=O)(O)OP(=O)(O)OP(=O)(O)O)[C@@H](O)[C@H]1O [ATP]
[1]
  Km: DnaC follows apparent Michaelis-Menten behavior

## E. coli DnaB replicative helicase, wild type (from UniProt P0ACB0 1-471) (enzyme)
[2]
  stoichiometry N: 6
[3]
  stoichiometry N: 6

B1: E. coli DnaC helicase loader, wild type (enzyme, UniProt P0AEF0 1-245, looked up)
chain: MKNVGDLMQRLQKMMPAHIKPAFKTGEELLAWQKEQGAIRSAALERENRAMKMQRTFNRSGIRPLHQNCSFENYRVECEGQMNALSKARQYVEEFDGNIASFIFSGKPGTGKNHLAAAICNELLLRGKSVLIITVADIMSAMKDTFRNSGTSEEQLLNDLSNVDLLVIDEIGVQTESKYEKVIINQIVDRRSSSKRPTGMLTNSNMEEMTKLLGERVMDRMRLGNSLWVIFNWDSYRSRVTGKEY
cryo-EM structure
  stoichiometry N: 6
